These results are taken from the Immune Epitope Database (IEDB).

Test [1] concerns the target HLA-A*02:01. As to the kind of experiment: IEDB peptide-MHC binding, purified MHC/competitive/fluorescence; ≥ and ≤ were set here for values at or beyond the usual limits of such assays.
A further test deals with HLA-A*01:01. As to the kind of experiment: IEDB peptide-MHC binding, purified MHC/competitive/radioactivity; filed as Kd, often an IC50 or EC50 that approximates it; ≥ and ≤ were set here for values at or beyond the usual limits of such assays.
The target in another test is HLA-A*26:01. The test is described as above.
The next test has as its target HLA-A*30:02. The test is described as above.
Another test addresses HLA-A*23:01. Described as above.
For a further test, the target named is HLA-A*24:02. The test is described as above.
Another test concerns the target HLA-A*29:02. The description is as above.
Test [2] concerns the target HLA-A*02:01. Kind of test: IEDB peptide-MHC binding, purified MHC/competitive/fluorescence; filed as Kd, often an IC50 or EC50 that approximates it; ≥ and ≤ were set here for values at or beyond the usual limits of such assays.
The target of test [3] is HLA-A*02:01. As to the kind of experiment: IEDB peptide-MHC binding, purified MHC/direct/fluorescence; filed as Kd, often an IC50 or EC50 that approximates it; ≥ and ≤ were set here for values at or beyond the usual limits of such assays.
In another test the target is HLA-A*69:01. Described as above.
The mark [4] stands for this setting: source organism: Vaccinia virus Copenhagen.
Where [5] appears, read: source organism: Dengue virus 4 Philippines/H241/1956.
[6] abbreviates: source organism: Dengue virus 1 Brazil/97-11/1997.
Setting [7] is: source organism: Dengue virus 3 Sri Lanka/1266/2000.
[8] abbreviates: source organism: Mammarenavirus guanaritoense.
The mark [9] stands for this setting: source organism: Dengue virus 2 Jamaica/1409/1983.
[10] abbreviates: source organism: SARS coronavirus Tor2.
[11] abbreviates: source organism: Zaire ebolavirus.
Setting [12] is: source organism: Dengue virus 4 Dominica/814669/1981.
Where [13] appears, read: source organism: Dengue virus 3 Martinique/1243/1999.
The mark [14] stands for this setting: source organism: Mammarenavirus choriomeningitidis.
The mark [15] stands for this setting: source organism: Mammarenavirus juninense.
The mark [16] stands for this setting: source organism: Mammarenavirus machupoense.
The mark [17] stands for this setting: source organism: Mammarenavirus brazilense.
Where [18] appears, read: source organism: Salmonella enterica subsp. enterica serovar Typhimurium.
The mark [19] stands for this setting: source organism: Mammarenavirus whitewaterense.
Setting [20] is: source organism: Mycobacterium tuberculosis.

By IC50 is commonly meant the concentration that inhibits the measured activity by half. QLLEAVYGN: the concentration for half-maximal inhibition (IC50) with HLA-A*02:01 [1] (setting [4]) stood at 21.6 µM.
In general, Kd refers to the constant that tells how readily two partners part at equilibrium. TSETFSMGLL: the dissociation constant Kd in the test with HLA-A*01:01 (setting [5]) turned out to be 0.242 µM.
With DNPYKTWAY, in the test with HLA-A*26:01 (setting [6]), the Kd was 6.39 µM.
In the case of SISKSNAKC, in the test with HLA-A*02:01 [1] (setting [4]), the IC50 was 35.8 µM.
The same measure, in the same setting: the same measure for KLTDSLSSQ: 44.6 µM.
As to AGPISQHNY, in the test with HLA-A*30:02 (setting [7]), the Kd is at least 76900 nM.
On to IRHLFGNYI, for which the Kd in the test with HLA-A*01:01 (setting [8]) was at least 22.2 µM; in the test with HLA-A*23:01 (setting [8]), at least 22100 nM; in the test with HLA-A*24:02 (setting [8]), at least 43700 nM; with HLA-A*26:01 (setting [8]), at least 77.9 µM; in the test with HLA-A*29:02 (setting [8]) it was 571 nM; with HLA-A*30:02 (setting [8]) it was at least 24100 nM.
Regarding AILGDTAWDF, the Kd with HLA-A*23:01 (setting [9]) stood at 3710 nM.
Take CWCNSTSTW: the equilibrium dissociation constant (Kd) with HLA-A*23:01 (setting [9]) turned out to be 998 nM; with HLA-A*24:02 (setting [9]), 1250 nM.
In the case of GTDLEGKFY, the dissociation constant Kd with HLA-A*01:01 (setting [10]) is 0.0334 µM; with HLA-A*23:01 (setting [10]), at least 77800 nM; in the test with HLA-A*24:02 (setting [10]) it was at least 77600 nM; with HLA-A*26:01 (setting [10]), at least 38.8 µM; with HLA-A*29:02 (setting [10]) it was 273 nM; in the test with HLA-A*30:02 (setting [10]) it was 1390 nM.
The sequence GVIHNSTLQ had an IC50 in the test with HLA-A*02:01 [1] (setting [11]) of at least 121 µM.
For the sequence ESQMLIPKSY, the Kd with HLA-A*01:01 (setting [12]) came out at 8.37 µM; in the test with HLA-A*30:02 (setting [12]), 1210 nM.
For the sequence YKTWAYHGSY, the equilibrium dissociation constant (Kd) in the test with HLA-A*30:02 (setting [9]) was determined as 4220 nM.
Consider SKIPGGAMY, for which, in the test with HLA-A*30:02 (setting [13]), the Kd was 365 nM.
As to PDLKTIHNIL, the dissociation constant (Kd) is at least 70.4 µM with HLA-A*01:01 (setting [14]), at least 69.7 µM with HLA-A*26:01 (setting [14]) and 10300 nM with HLA-A*30:02 (setting [14]).
For the sequence TSQVPKLLL, the half-maximal inhibitory concentration (IC50) with HLA-A*02:01 [1] (source organism: Variola virus) amounted to 47.4 µM.
RWTQSLRRGL: the dissociation constant Kd was 5300 nM in the test with HLA-A*23:01 (setting [15]), at least 70300 nM with HLA-A*24:02 (setting [15]) and 1280 nM in the test with HLA-A*29:02 (setting [15]).
As for RQMATTTNPL, the Kd with HLA-A*02:01 [2] (source organism: Influenza A virus (A/parakeet/Chiba/1/97(H9N2))) was found to be 393 nM.
As for MYEMHRESLL, the dissociation constant (Kd) with HLA-A*23:01 (setting [8]) was 870 nM; with HLA-A*24:02 (setting [8]) it was 3170 nM; with HLA-A*29:02 (setting [8]), 9880 nM.
For the sequence EYFMCFKYLL, the Kd stood at 9.3 nM with HLA-A*23:01 (setting [16]), 192 nM with HLA-A*24:02 (setting [16]) and 49 nM in the test with HLA-A*29:02 (setting [16]).
As for ALAPAPAEV, the IC50 with HLA-A*02:01 [1] (source organism: Homo sapiens) turned out to be 0.052 µM.
ALSPPLLLL showed a Kd in the test with HLA-A*02:01 [2] (source organism: Escherichia coli E22) of 157 nM.
Sequence QIGDIIIAV returned a half-maximal inhibitory concentration (IC50) with HLA-A*02:01 [1] (source organism: Variola virus) of 0.293 µM.
Consider TIGEWAFWE, for which the IC50 with HLA-A*02:01 [1] (setting [11]) was at least 245 µM.
In the test with HLA-A*02:01 [2] (source organism: Variola virus), RTLLGLILFV yielded a Kd of 1270 nM.
As for GYATQTVGPW, the dissociation constant (Kd) with HLA-A*23:01 (setting [5]) is 549 nM; with HLA-A*24:02 (setting [5]), 1290 nM.
SEELSFTVV displayed an IC50 with HLA-A*02:01 [1] (setting [11]) of at least 145 µM.
As to KLTLKGMSY, the dissociation constant Kd with HLA-A*30:02 (source organism: Dengue virus 1 Singapore/S275/1990) is 521 nM.
Consider RLKGVTCRLF, for which the values for the Kd with HLA-A*23:01 (setting [17]), with HLA-A*24:02 (setting [17]) and with HLA-A*29:02 (setting [17]) were 98.3 nM, 719 nM and 395 nM, respectively.
For the sequence FAHELEMLC, the figures for the Kd with HLA-A*02:01 [3] (setting [18]) and with HLA-A*69:01 (setting [18]) were 1170 nM and 720 nM, respectively.
In the test with HLA-A*02:01 [1] (source organism: Porphyromonas gingivalis), KLAGGVAVL came in with a concentration for half-maximal inhibition (IC50) of 0.12 µM.
Consider QVFLKMRRIF, for which the figures for the Kd with HLA-A*23:01 (setting [19]), with HLA-A*24:02 (setting [19]) and in the test with HLA-A*29:02 (setting [19]) were 401 nM, 12300 nM and 9080 nM, respectively.
In the test with HLA-A*02:01 [1] (setting [11]), EQYQQLREA had an IC50 of at least 221 µM.
With ILDNQGRVV, the Kd with HLA-A*02:01 [3] (source organism: Venezuelan equine encephalitis virus) is 1210 nM.
As to IGNENYLDY, the Kd in the test with HLA-A*30:02 (setting [6]) was 956 nM.
MFGGVSWMI: the Kd in the test with HLA-A*23:01 (setting [12]) stood at 41.8 nM; in the test with HLA-A*24:02 (setting [12]), 78.3 nM.
With EDLIEWAME, in the test with HLA-A*02:01 [1] (source organism: Vaccinia virus), the IC50 was at least 94.7 µM.
In the case of KVDTTHVSKV, in the test with HLA-A*02:01 [2] (source organism: Myxoma virus), the Kd was 42.3 nM.
For EVKQDEDGSF, the equilibrium dissociation constant (Kd) with HLA-A*26:01 (setting [5]) was 0.0692 µM.
Consider AVGIGLRLV, for which the figures for the Kd in the test with HLA-A*02:01 [3] (setting [20]) and with HLA-A*69:01 (setting [20]) were 128 nM and at least 20000 nM, respectively.
In the test with HLA-A*02:01 [2] (source organism: unidentified), FLHEDLEKL came in with a Kd of 10 nM.
As to VSQHNYRPGY, the equilibrium dissociation constant (Kd) came to 6.79 µM with HLA-A*01:01 (setting [9]) and 385 nM in the test with HLA-A*30:02 (setting [9]).
Take TYQLWTALV: the Kd is 58.3 nM with HLA-A*23:01 (setting [7]) and 48.3 nM in the test with HLA-A*24:02 (setting [7]).
As for ASEAVNDSRF, the equilibrium dissociation constant (Kd) with HLA-A*01:01 (setting [5]) is at least 31.4 µM.
Turning to LEELLPAVS, in the test with HLA-A*02:01 [1] (setting [11]), the IC50 is at least 141 µM.
For the sequence ENPYKTWAYH, in the test with HLA-A*26:01 (setting [13]), the Kd was at least 34.1 µM.
On to VSLTCSNTIF, for which the Kd with HLA-A*01:01 (setting [7]) was 7.76 µM.
With AWLVHRQWFL, the dissociation constant (Kd) with HLA-A*23:01 (setting [9]) was found to be 97.7 nM.
As for DVIPMVTQM, the Kd with HLA-A*26:01 (source organism: Dengue virus 2 Peru/IQT2913/1996) turned out to be 0.0642 µM.
